In PMC2915839 (Journal of the American Chemical Society, 2010):
“And” between values parts separate entries of the source, which are not always exact repeats. Equal values may be shown once.

Tests used:
[1] = Dynamic light scattering / transmission EM of equilibrated samples; assay type: physicochemical; conditions: equilibrated 150 and 300 µM samples
[2] = molecular target: T1, NMR invisible oligomeric species of Aβ (1–40) (Homo sapiens, UniProt P05067); assay type: binding
[3] = 150 µM total; 50 mM HEPES, pH 6.8, 10°C
[4] = molecular target: T1, NMR invisible oligomeric species of Aβ (1–40); experiment: 15N-R2 and 1HN-R2 transverse relaxation; assay type: binding
^15N-labeled Aβ(1–40) = ^15N-labeled Aβ(1–40) (Homo sapiens, UniProt P05067); experiment: Intermolecular paramagnetic relaxation enhancement; assay type: binding
Chain of ^15N-labeled Aβ(1–40) (P05067 672-711 limits assumed): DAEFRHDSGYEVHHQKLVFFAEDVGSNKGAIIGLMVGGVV

T1 sequence (P05067 672-711 limits assumed): as above

Substance: Aβ(1–40): amyloid β (Aβ) peptide (1–40), uniformly 15N-labeled, prepared from NaOH treated stocks to remove fibril seeds
- presence of aggregates by dynamic light scattering [1]: presence of large polydisperse aggregates was confirmed
- morphology by transmission EM ([1]; negatively stained, >3 weeks): elongated morphologically disordered non-fibrillar aggregates with possibly some small needle-like fibrils present
- timescale of monomer-oligomer dynamic equilibrium [2]: 10 to 15 ms
- fraction of oligomers ([2]; 60 µM): negligible
- effect of off-resonance saturation pulse on amide signal intensity ([2]; 60 µM, until pulse approaches resonances of the protein): no effect on the signal intensity of the amide resonances
- effect of CW pulse far off-resonance on amide resonances ([2]; 300 µM, RF 180 and 350 Hz): uniformly attenuated
- fraction of peptide within dark oligomeric state exchanging with free monomer ([2]; abstract, concentration not specified): ~ 3%
- peptides within the oligomer undergoing exchange with free monomer, 1 in about N ([2]; from fex): about 30
- mobility of N-terminal 9 residues upon association with oligomer ([2]; from regional specificity of ΔR2): remain highly mobile
- monomer concentration at pseudo-equilibrium [3]: 105 µM
- konapp (apparent first order rate constant, monomer to oligomer) ([4]; 300 µM total, pH 6.8, 10°C): 3.1 s^−1 and ~ 3 s^−1
- 1HN-R1 of monomer ([4]; Aβ(1–40) monomer, 10°C): 1 s⁻¹
- population of lower order, transient, self-associated states (^15N-labeled Aβ(1–40); if present, or exchange is slow on the PRE time scale (< ca. 1 ms)): 1–2%

Substance: F20C: single-cysteine variant Aβ(1–40), F20C mutation in the center of the peptide, conjugated to a nitroxide spin-label or a diamagnetic analogue
- intermolecular PREs, in words (^15N-labeled Aβ(1–40); 100 µM U-[15N]-Aβ(1–40) + 170 µM spin-labeled F20C variant): essentially no intermolecular PREs were observed
